According to PMC4000066 (Cell, 2014):

B1: His-GFP-caspase-1^CARD (domain or fragment, UniProt P29466 1-91, looked up)
chain: MADKVLKEKRKLFIRSMGEGTINGLLDELLQTRVLNKEEMEKVKRENATVMDKTRALIDSVIPKGAQACQICITYICEEDSYLAGTLGLSA
B2: endogenous caspase-1 of THP-1 cells (enzyme, human (endogenous in THP-1), UniProt P29466 1-404, looked up)
chain: MADKVLKEKRKLFIRSMGEGTINGLLDELLQTRVLNKEEMEKVKRENATVMDKTRALIDSVIPKGAQACQICITYICEEDSYLAGTLGLSADQTSGNYLNMQDSQGVLSSFPAPQAVQDNPAMPTSSGSEGNVKLCSLEEAQRIWKQKSAEIYPIMDKSSRTRLALIICNEEFDSIPRRTGAEVDITGMTMLLQNLGYSVDVKKNLTASDMTTELEAFAHRPEHKTSDSTFLVFMSHGIREGICGKKHSEQVPDILQLNAIFNMLNTKNCPSLKDKPKVIIIQACRGDSPGVVWFKDSVGVSGNLSLPTTEEFEDDAIKKAHIEKDFIAFCSSTPDNVSWRHPTMGSVFIGRLIEHMQEYACSCDVEEIFRKVRFSFEQPDGRAQMPTTERVTLTRCFYLFPGH

Legend:
[1] = molecular target: ASC^FL (from His-MBP-ASC^FL after removal of His-MBP by TEV) (UniProt Q9ULZ3 1-195); assay: pull-down
[2] = molecular target: endogenous ASC of THP-1 cells (human (endogenous in THP-1), UniProt Q9ULZ3 1-195); assay: co-IP
endogenous ASC of THP-1 cells, sequence (Q9ULZ3 whole entry): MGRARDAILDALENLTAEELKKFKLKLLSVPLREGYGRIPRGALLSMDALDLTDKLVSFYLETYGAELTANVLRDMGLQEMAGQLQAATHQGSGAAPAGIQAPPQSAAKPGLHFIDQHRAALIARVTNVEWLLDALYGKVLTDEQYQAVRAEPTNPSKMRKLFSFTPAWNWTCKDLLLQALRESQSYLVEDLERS

ASC^FL (from His-MBP-ASC^FL after removal of His-MBP by TEV), sequence (Q9ULZ3 whole entry): as above

| Binder | binding result [1] | stoichiometry N [2] |
| --- | --- | --- |
| B1 | binds | – |
| B2 | – | ~3.5 fold (caspase-1 to ASC) |
